Measurements from patent US20190161525A1 (NATIONAL CHENG KUNG UNIVERSITY, published 2019).

Biological target: the molecule itself
Assay: self-polymerization in PBS, reducing SDS-PAGE and Western blot

B1: Zfra1-31 (full-length zinc finger-like protein that regulates apoptosis, synthetic peptide) (peptide)
peptide: MSSRRSSSCKYCEQDFRAHTQKNAATPFLAN
notes: also called Zfra peptide; full-length Zfra
B1: binds.
